These results are taken from the DeepSol protein solubility set.

The nature of the data set: soluble on expression in E. coli; label from the status in PepcDB or PDB records.
For the sequence “SLVTVSDVKQYHFCKAIPWINYVMGYREPSTFSMEEGKKISYEEVVKSLNLTTPVKYEVCLSYNGLSGCIDILAGDRKYTVVEVKAFKRGNFSHFRYQLLAYAYLVRKRLGIVERAILVMEGKKVLEIEPTEEHYRYIENVVKKIEEIVNSEKLPAVNVEKCDFCQYRRICPVSVWS”, the “soluble on expression in E. coli” value is recorded as “not soluble”.

As to “MPIVYYDGNCIYCYNYVIWLIQHDLPRNYQFATLKGEVGQQFFKQHPEAANKNSVILQKGDRIYFESQAIIKLITALPNRTKLLGVGLWLVPKPVRNFGYRMFANNRNRMWKTTWHQPNDYEKSFFLDDNAKVKLTD”, the “soluble on expression in E. coli” value is on record as “not soluble”.

On to “MPHLFYGTAQNGEVIFDEREAHHMRVVRLKEGDVIEATDGNGFSYTCILKSLKKKTAAAKIVKVEEKEKEPTEKLSVVVPIGRWERTRFLIEKCVELGVDEIFFHKFERSQHEISLDKAKIVVREAAKQCKRYLFPKVSFLEKLEFSGNVITLDLDASQNLLDANLEGSITVVVGPEGGFSEKERELLRSSTTIVSLGKKILRFETAAILTVGYIALKKQKI”, for which the “soluble on expression in E. coli” value was “not soluble”.

Turning to “MGSDKIHHHHHHMTGIVTANWWTSLIYRVFVRTACLRAGRGLLPNIWEWLWRLSCNIIEGPVDITIHNRPAIVNFGYTYPIYMRCYPELNAPLVELTYQCWRSRGTAICIVDVGAAVGDTMLLLHSNLPEAVGSFVCIEGDQEFYRYLQHNLGHMTEGRLINVVVADQETEVSDLVRIHTGTASAQGERTRGASTLSAVVTEEIDLIKIDVDGFDGRVLLGAEDLLKRCRPLVIFEWHPSLCRQTGNNWTDHFDVLARCGYSRCLWFTKFGHFSHFSFGHCREEIDTLAEYCMSDVVKDWHYDVIALHDDSDLSLLLLSQLGFAKARPSRY”, the “soluble on expression in E. coli” value is recorded as “not soluble”.

Regarding “MELDVFAGQEKSELSMIEVARAILETRGRDKEMYFNDLVNEIQNYLEKSDADIRSSLPFFYSDLNTDGSFIPLGDNKWGLRSWYAIDEIDEEVITLEDIDENAPKRKNKKVNAFMDGDEDAIDYNDDDPEDENFTPSSAILEYDNDNEDDENAEVESYDSELNEIIPDDDLDDVELSEEDDDDDDDYEDETND”, the “soluble on expression in E. coli” value is “not soluble”.

Consider “EVVVIGYGSVKKDDLSGSVVAIKAEEMNKGAVTSPQELIMGKVPGLSVSQGDGAPGAGSTIRIRGGASLNASNDPLIVIDGIPVSNDAAPGTPNALATINPNDIETFTVLKDASATAIYGSRASNGVIII”, for which the “soluble on expression in E. coli” value is on record as “not soluble”.

Take “MMLVTAHDMPIFAPTCNLMTISHQPLPSHLVRKSSSLHIAASTIHVKFIVRSHVIKMIAGIFLVCECHAKGGANSITASKQSPIIADLYDMKILIVFCLSYTNLIASKVKKQ”: the “soluble on expression in E. coli” value is listed as “soluble”.

On to “MSLNDTFVVVDLETTGHSVKKGGRIIQIGMTFIKKRQIVDHFESFVNPGQLIDRQIQQLTHISQKDVQNAPYFEEIAPLLQNLLQNTVIIAHNVNFDYPYLNDEFERTGFPLLKSAAIDTVQLAQIMFPTAPGYRLLDLTTYLNITLKNAHRANADAHATALLFLKFWKKLEELPDITLKQLQQGDWPLLRQTQQFLKLVHSKNEGHHHHHH”, for which the “soluble on expression in E. coli” value was “not soluble”.

Regarding “MCEIFAKQPQDNYQFITRSIRIDGHATSVKLESSFWTILEEIASAQDMTVPKFISTVYQEALEYNGEVNNFASLLRCACLTYARQPENTLHQALAQLN”, the “soluble on expression in E. coli” value is given as “not soluble”.

For “MAHHHHHHMQMRWIVDAEERYRRSLTWKPAVGTIYDHKIVMKRGGSSHVQYRFDVDGKEYLGDRFRSGGVHKEEMVSNPALLGAGTQLVVYYNPSDPSESAIKLQTDRAAESAFLVGITISLLVAYRSVRCETILPNMFYSFLAVNRRLGGITGLREARTHSKQKMKYGKGTGAI”, the “soluble on expression in E. coli” value is listed as “not soluble”.

For “MARKAESSNRLDDAARAGWLYYVAGRTQDEIASVMGISRQSAQRLVSLAMAERLIKVRLDHPIAACLEMAARLKEKYDLKHVDVVPSDPGSDSTTVGIAEAGAAEIERWLKSAEPVVLAIGTGRTLKATIDQLPSMECPQHRIVSLTGNIRLDGSAAYYNVIFSMADTIKARHFPMPLPVLVSSPEEREVLHKQSLVQIALELGAEADAAFVGVGELGPDAPLCEDGFLARDEMARLMAAGAAGEICGWMFDHEGVLLPDSINERVASVPLPPRDRASVIGIAKGRRKHEALRAALKGRIINGLVTDEATADYLLRV”, the “soluble on expression in E. coli” value was “not soluble”.
